Measurements: article PMC10538557, “Vps60 initiates alternative ESCRT-III filaments” (The Journal of Cell Biology, 2023)

T1: Vps2 (UniProt P36108 1-232, TFP-AlexaFluor-488, TFP-Atto-565 or NHS-Atto-647N label, by experiment; labeled proteins were mixed 1:1 with unlabeled proteins)
T1 construct: Vps2, ESCRT-III subunit (human homolog CHMP2A); The yeast protein is surmised from the yeast nomenclature; also called Alexa488-Vps2; Vps2-Alex488
T1 sequence (looked up): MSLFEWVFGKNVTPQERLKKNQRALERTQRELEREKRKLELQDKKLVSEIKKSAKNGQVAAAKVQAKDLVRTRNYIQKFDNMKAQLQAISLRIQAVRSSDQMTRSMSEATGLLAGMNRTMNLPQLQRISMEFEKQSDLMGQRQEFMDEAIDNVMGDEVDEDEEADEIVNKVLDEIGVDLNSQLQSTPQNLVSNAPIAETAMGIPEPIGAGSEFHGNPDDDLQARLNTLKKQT

B1: Vps60 (natural protein, S. cerevisiae, UniProt Q03390 1-229, looked up)
chain: MNRIFGYGNKKSHDQLLQESNQSMNQAQQSLSNRISQLDTQIAQLNFQLQNIQKNLQRSNNKQPSLRKQALKILNKRKQLENMKDSLDSQSWSMTQAQLTNDNLQNTMITINALKQTNNAMKAQYGKINIDKLQDMQDEMLDLIEQGDELQEVLAMNNNSGELDDISDAELDAELDALAQEDFTLPTSENSLGNDMPSYLLGANAPPAFIDEEPNLDTEDKNKALESAQ
modifications: TFP-Atto-565 label (Atto565-Vps60) in the fluorescence assays; Alexa488-Vps60 also named; labeled proteins were mixed 1:1 with unlabeled proteins
notes: Vps60 (Mos10), ESCRT-III subunit of yeast; construct pGEX4T-Vps60; also called Mos10; Atto565-Vps60; source: Bl21 Escherichia coli (pGEX4T-Vps60), purified on GST-resin, on-column cleavage with TEV protease

Columns and labels:
[1] = target: the molecule itself; test: negative-stain electron microscopy; LUVs (DOPC:DOPS 6:4) in 20 mM Tris, pH 6.8, 200 mM NaCl, 1 mM MgCl2, incubated with 250 nM Vps60 for 1 h at 4°C, alone or with subsets of ESCRT-III subunits (Vps2 and Vps24; Vps2, Vps24 and Did2); filaments imaged after uranyl acetate staining
Vps2 = target: T1, Vps2; test: recruitment on supported lipid bilayers, confocal fluorescence microscopy; SLBs covered with both Alexa488-Snf7 patches and Atto565-Vps60, incubated with Atto647-Vps2, Vps24 and Did2; time-lapse; settings: both partners purified
Vps60 = target: B1; test: negative-stain electron microscopy; LUVs (DOPC:DOPS 6:4) in 20 mM Tris, pH 6.8, 200 mM NaCl, 1 mM MgCl2, incubated with 250 nM Vps60 for 1 h at 4°C, alone or with subsets of ESCRT-III subunits (Vps2 and Vps24; Vps2, Vps24 and Did2); filaments imaged after uranyl acetate staining; settings: both partners purified

binding result (Vps2) | binding result (Vps60) | Binder | binding result [1]
binds | – | B1 | binds
– | binds | Vps24 (natural protein, UniProt P36095 1-224, looked up, TFP-AlexaFluor-488 label where detected; labeled proteins were mixed 1:1 with unlabeled proteins, Vps24, ESCRT-III subunit (human homolog CHMP3); The yeast protein is surmised from the yeast nomenclature; also called Alexa488-Vps24) MDYIKKAIWGPDPKEQQRRIRSVLRKNGRNIEKSLRELTVLQNKTQQLIKKSAKKNDVRTVRLYAKELYQINKQYDRMYTSRAQLDSVRMKIDEAIRMNTLSNQMADSAGLMREVNSLVRLPQLRNTMIELEKELMKSGIISEMVDDTMESVGDVGEEMDEAVDEEVNKIVEQYTNEKFKNVDQVPTVELAANEEEQEIPDEKVDEEADRMVNEMRERLRALQN | –
– | binds | Did2 (natural protein, UniProt P69771 1-204, looked up, maleimide-AlexFluor-488 label where detected; labeled proteins were mixed 1:1 with unlabeled proteins, Did2, ESCRT-III subunit (human homolog CHMP1B); The yeast protein is surmised from the yeast nomenclature; also called Alexa488-Did2; Did2-Atto565) MSRNSAAGLENTLFQLKFTSKQLQKQANKASKEEKQETNKLKRALNENEDISRIYASNAIRKKNERLQLLKLASRVDSVASRVQTAVTMRQVSASMGQVCKGMDKALQNMNLQQITMIMDKFEQQFEDLDTSVNVYEDMGVNSDAMLVDNDKVDELMSKVADENGMELKQSAKLDNVPEIKAKEVNVDDEKEDKLAQRLRALRG | –
